Conditions in all cases: remark: other sources report otherwise
For assay [1], the target named is recombinant homotrimeric HA, A/northern shoveler/California/HKWF115/07 (Influenza A virus A/northern shoveler/California/HKWF115/2007 (H6N1)). Nature of the assay: trimeric HA microarray, transfection set 2.
The target of assay [2] is recombinant homotrimeric HA, A/Hong Kong/1073/99 H9N2 (Influenza A virus A/Hong Kong/1073/99 (H9N2)). Briefly: trimeric HA microarray, transfection set 2.
Assay [3] has as its target recombinant soluble homotrimeric HA of A/Hong Kong/2108/03 (H9N2) (Influenza A virus A/Hong Kong/2108/03 (H9N2)). Briefly: microarray, control antibody, trimeric HA.
The target of assay [4] is recombinant soluble homotrimeric HA of A/Hong Kong/2108/03 - H9N2 (Influenza A virus A/HK/2108/2003 (H9N2)). Nature of the assay: micro-array; captured IgG, V5-tagged trimeric HA.
For assay [5], the target named is T1, recombinant homotrimeric HA, A/Wisconsin/67/05 H3N2 (Influenza A virus A/Wisconsin/67/05 (H3N2)). Briefly: trimeric HA microarray, transfection set 2.
In assay [6] the target is T2, recombinant homotrimeric HA, A/Anhui/1/05 H5N1 (Influenza A virus A/Anhui/1/05 (H5N1)). Nature of the assay: trimeric HA microarray, transfection set 2.
Assay [7] has as its target recombinant homotrimeric HA, A/duck/Yangzhou/02/05 H8N4 (Influenza A virus A/duck/Yangzhou/02/2005 (H8N4)). Briefly: trimeric HA microarray, transfection set 2.
Assay [8] addresses recombinant homotrimeric HA, A/Netherlands/219/03 H7N7 (Influenza A virus A/Netherlands/219/03 (H7N7)). Nature of the assay: trimeric HA microarray, transfection set 2.
The target of assay [9] is T2, recombinant homotrimeric HA, …. Nature of the assay: trimeric HA microarray, transfection set 1.
The target of assay [10] is T1, recombinant homotrimeric HA, …. Briefly: trimeric HA microarray, transfection set 5.
For assay [11] the target is unchanged. Briefly: trimeric HA microarray, transfection set 4.

B1: TCN-523 (5248_A17) (antibody, V domains shown)
VH: QVQLVQSGAEVKKPGSSVKVSCKASGGSFSNYAFSWVRQAPGQGLEWMGGTIPLLGTTNYAQKFQGRVTISADQFTSTAYMELGSLRSEDTAVYYCTRRKMTTAFDSWGQGTLVTVSS
VL: QPVLTQPPSASASLGASVTLTCTLSSAYSNYKVDWYQQRPGKGPRFVMRVGTGGIVGSKGDGIPDRFSVLGSGLNRYLTIKNIQEEDESDYHCGADHGSGSNFVSPYVFGGGTKLTVL
Regarding B1, the Trimeric HA Binding RLU in assay [1] came to 21200 RLU; in assay [2] it was 31300 RLU.

B2: TCN-504 (3251_K17) (antibody, V domains shown)
VH: QVQLQESGPGLVKPSETLSLTCAVSGVSISNIDFYWGWIRQPPGKGLEWIGNIYYTGITFYNPSLSSRVAISIDTSKNQFSLTLTSVTAADTAMYYCARHYGDSEAINDAFDIWGQGTMLTVSS
VL: EIVMTQSPATLSVSPGERATLSCRASQSVGNSLAWYQQRPGQAPRLLIYGASTRATGIPPRFSGSGSGTEFTLTISSLQTEDFAVYYCQQYINWRPLSFGGGTKVEIK
B2: the results for the Trimeric HA Binding: RLU in assay [3] and in assay [4] were 454 RLU and 7 RLU, respectively. For the same molecule, the Trimeric HA Binding RLU in [5] turned out to be 21600 RLU; in [6], 31000 RLU; in assay [7] it was 17800 RLU; in assay [8], 19300 RLU; in assay [9] it was 29000 RLU; in [10] it was 38100 RLU. The Trimeric HA Binding RLU in assay [11] turned out to be 20600 RLU.

Source of the values: patent US20120207760A1.
